Here are results for one molecule from article PMC3983370.

Usually Kd stands for the concentration at which binding is half-saturated.

In the data set the target is HCoV-OC43 nucleocapsid (N) protein WT (Human coronavirus OC43, UniProt P33469 1-448). Description: SPR. For orientation: Surface plasmon resonance follows binding to a sensor surface in real time, without labels.
Sequence of HCoV-OC43 nucleocapsid (N) protein WT (P33469 whole entry): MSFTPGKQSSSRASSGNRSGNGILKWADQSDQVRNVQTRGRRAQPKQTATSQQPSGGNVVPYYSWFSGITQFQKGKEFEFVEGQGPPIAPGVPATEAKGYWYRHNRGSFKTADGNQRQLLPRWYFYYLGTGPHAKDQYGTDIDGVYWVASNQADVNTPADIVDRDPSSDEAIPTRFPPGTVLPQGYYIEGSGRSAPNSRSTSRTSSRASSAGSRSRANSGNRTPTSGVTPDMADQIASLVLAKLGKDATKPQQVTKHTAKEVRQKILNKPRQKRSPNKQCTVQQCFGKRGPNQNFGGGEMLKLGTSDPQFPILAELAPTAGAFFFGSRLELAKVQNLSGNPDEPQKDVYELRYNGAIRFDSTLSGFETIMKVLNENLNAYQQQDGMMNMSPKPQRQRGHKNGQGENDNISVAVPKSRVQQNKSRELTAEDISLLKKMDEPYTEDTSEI

Molecule UCUAAACUCUAAACUCUAAACUCUAAAC (ssRNA) [(UCUAAAC)4 repeated intergenic sequence] registered a Kd of 11.7 ± 0.8 nM.
